Results as given in patent publication US20240116985A1 (published 2024).
Starred links: 1 amine or outer side, 2 acyl side, 3 side chain; linkers in the order of their positions; H or OH if unused. Positions of bridges follow the written chain, without caps; N, C: chain ends. Non-standard residues stand in square brackets, D forms with d. Primed or numbered codes have the meaning given here. B5(11) = 2,2-bis(4-pentenyl)glycine = 2-amino-2-(pent-4-en-1-yl)hept-6-enoic acid (stitching residue, bears both staples), C=CCCCC(CCCC=C)(N[*:1])C(=O)[*:2]; PyrS2″ = (S)-3-amino-1-((pent-4-en-1-yloxy)carbonyl)pyrrolidine-3-carboxylic acid (stapling residue), C=CCCCOC(=O)N1CC[C@@](N[*:1])(C(=O)[*:2])C1; B5(24) = 2-amino-2-(pent-4-en-1-yl)hept-6-enoic acid, 2,2-bis(4-pentenyl)glycine (stitching residue), C=CCCCC(CCCC=C)(N[*:1])C(=O)[*:2]; B5(21) = 2-amino-2-(pent-4-en-1-yl)hept-6-enoic acid, bis(4-pentenyl)glycine (stitching residue), C=CCCCC(CCCC=C)(N[*:1])C(=O)[*:2]; Phe(2-Br) = N[C@@H](Cc1ccccc1Br)C(=O)O; Phe(3-F) = N[C@@H](Cc1cccc(F)c1)C(=O)O; Bta = N[C@@H](Cc1csc2ccccc12)C(=O)O; αAllylPro = C=CC[C@@]1(C(=O)O)CCCN1; NMeH = CN[C@@H](Cc1c[nH]cn1)C(=O)O; S8 = C=CCCCCCC[C@](C)(N)C(=O)O

T1: full-length beta-Catenin (Uniprot ID P35222) (Homo sapiens (Human), UniProt P35222 1-781)
T1 construct: The assay protocol says full-length beta-Catenin (Uniprot ID P35222); tags are not described; also called bCat; B-Catenin
T1 sequence: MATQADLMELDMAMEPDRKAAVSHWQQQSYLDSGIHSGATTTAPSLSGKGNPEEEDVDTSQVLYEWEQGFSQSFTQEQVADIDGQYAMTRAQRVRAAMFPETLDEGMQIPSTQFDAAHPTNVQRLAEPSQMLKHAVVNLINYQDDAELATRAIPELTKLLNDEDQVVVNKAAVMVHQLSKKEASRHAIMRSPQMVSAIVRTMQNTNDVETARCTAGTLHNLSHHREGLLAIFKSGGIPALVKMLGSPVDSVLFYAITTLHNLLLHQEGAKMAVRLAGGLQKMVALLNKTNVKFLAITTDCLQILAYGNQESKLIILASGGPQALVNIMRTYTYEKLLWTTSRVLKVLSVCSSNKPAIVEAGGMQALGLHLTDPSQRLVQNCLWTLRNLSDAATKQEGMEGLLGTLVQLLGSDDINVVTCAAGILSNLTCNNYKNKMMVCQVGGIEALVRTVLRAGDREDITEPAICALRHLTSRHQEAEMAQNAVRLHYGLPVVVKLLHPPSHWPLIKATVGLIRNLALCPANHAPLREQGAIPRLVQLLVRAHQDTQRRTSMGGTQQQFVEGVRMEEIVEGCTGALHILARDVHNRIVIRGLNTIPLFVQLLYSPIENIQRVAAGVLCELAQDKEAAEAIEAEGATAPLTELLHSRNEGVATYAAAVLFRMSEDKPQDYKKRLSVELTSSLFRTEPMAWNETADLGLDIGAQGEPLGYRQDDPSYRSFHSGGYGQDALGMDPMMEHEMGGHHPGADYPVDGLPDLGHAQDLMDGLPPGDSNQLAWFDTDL

T2: full-length beta-Catenin (Uniprot ID P35222) (Homo sapiens (Human), UniProt P35222 1-781)
T2 construct: also called bCat; B-Catenin
T2 sequence: T1 sequence

B1: I-454 (peptide)
peptide: Ac-[αAllylPro]DA[B5(21)]DEAA[Phe(3-F)]N[S8]F[Bta]Q-NH2
modifications: staple 1-4, 4-11
notes: Stapled (stitched) peptide with non-natural residues
B2: I-436 (peptide)
peptide: Ac-[αAllylPro]DA[B5(24)]DEAAFN[S8][Phe(2-Br)][Bta]Q-NH2
modifications: staple 1-4, 4-11
notes: as for B1
B3: I-462 (peptide)
peptide: Ac-[αAllylPro]DA[B5(21)]DEAAFN[PyrS2″]F[Bta]Q-NH2
modifications: staple 1-4, 4-11
notes: as for B1
B4: I-746 (peptide)
peptide: Ac-[αAllylPro]DL[B5(11)]DEAAFN[S8]F[Bta][NMeH]-NH2
modifications: staple 1-4, 4-11; not fully specified
notes: Stapled peptide; same description as I-747, earlier eluting staple isomer composition; also called Ac-PL3-Asp-Leu-B5-Asp-Glu-Ala-Ala-Phe-Asn-S8-Phe-BztA-NMeHis-NH2
B5: I-733 (peptide)
peptide: XDLXDEAAFNXFXQI
modifications: not fully specified; N-terminal Ac; C-terminal NH2; PL3 at 1, B5 at 4, S8 at 11, BztA at 13; stapled PL3-B5 and B5-S8 by olefin metathesis
notes: Stapled peptide; also called Ac-PL3-Asp-Leu-B5-Asp-Glu-Ala-Ala-Phe-Asn-S8-Phe-BztA-Gln-Ile-NH2
B6: I-735 (peptide)
peptide: XDLXDEAAFNXFXQI
modifications: not fully specified; N-terminal Ac; C-terminal NH2; PL3 at 1, B5 at 4, S8 at 11, BztA at 13, dIle (D-Ile) at 15; stapled PL3-B5 and B5-S8 by olefin metathesis
notes: Stapled peptide; also called Ac-PL3-Asp-Leu-B5-Asp-Glu-Ala-Ala-Phe-Asn-S8-Phe-BztA-Gln-dIle-NH2
B7: I-734 (peptide)
peptide: XDLXDEAAFNXFXQI
modifications: not fully specified; N-terminal Ac; C-terminal NH2; PL3 at 1, B5 at 4, S8 at 11, BztA at 13, dIle (D-Ile) at 15; stapled PL3-B5 and B5-S8 by olefin metathesis
notes: as for B6
B8: I-747 (peptide)
peptide: Ac-[αAllylPro]DL[B5(11)]DEAAFN[S8]F[Bta][NMeH]-NH2
modifications: staple 1-4, 4-11; not fully specified
notes: Stapled peptide; same description as I-746, later eluting staple isomer composition; also called Ac-PL3-Asp-Leu-B5-Asp-Glu-Ala-Ala-Phe-Asn-S8-Phe-BztA-NMeHis-NH2
B9: I-744 (peptide)
peptide: XDLXDEAAFNXFXH
modifications: not fully specified; N-terminal Ac; C-terminal NH2; PL3 at 1, B5 at 4, S8 at 11, BztA at 13, dHis (D-His) at 14; stapled PL3-B5 and B5-S8 by olefin metathesis
notes: Stapled peptide; also called Ac-PL3-Asp-Leu-B5-Asp-Glu-Ala-Ala-Phe-Asn-S8-Phe-BztA-dHis-NH2
B10: I-748 (peptide)
peptide: XDLXDEAAFNXFXT
modifications: not fully specified; N-terminal Ac; C-terminal NH2; PL3 at 1, B5 at 4, S8 at 11, BztA at 13; stapled PL3-B5 and B5-S8 by olefin metathesis
notes: Stapled peptide; same description as I-749, earlier eluting staple isomer composition; also called Ac-PL3-Asp-Leu-B5-Asp-Glu-Ala-Ala-Phe-Asn-S8-Phe-BztA-Thr-NH2
B11: I-732 (peptide)
peptide: XDLXDEAAFNXFXQI
modifications: not fully specified; N-terminal Ac; C-terminal NH2; PL3 at 1, B5 at 4, S8 at 11, BztA at 13; stapled PL3-B5 and B5-S8 by olefin metathesis
notes: as for B5
B12: I-740 (peptide)
peptide: XDLXDEAAFNXFXHI
modifications: not fully specified; N-terminal Ac; C-terminal NH2; PL3 at 1, B5 at 4, S8 at 11, BztA at 13; stapled PL3-B5 and B5-S8 by olefin metathesis
notes: Stapled peptide; same description as I-741, earlier eluting staple isomer composition; also called Ac-PL3-Asp-Leu-B5-Asp-Glu-Ala-Ala-Phe-Asn-S8-Phe-BztA-His-Ile-NH2
B13: I-742 (peptide)
peptide: XDLXDEAAFNXFXHI
modifications: not fully specified; N-terminal Ac; C-terminal NH2; PL3 at 1, B5 at 4, S8 at 11, BztA at 13, dIle (D-Ile) at 15; stapled PL3-B5 and B5-S8 by olefin metathesis
notes: also called Ac-PL3-Asp-Leu-B5-Asp-Glu-Ala-Ala-Phe-Asn-S8-Phe-BztA-His-dIle-NH2
B14: I-729 (peptide)
peptide: XDLXDEAAFNXFXQA
modifications: not fully specified; N-terminal Ac; C-terminal NH2; PL3 at 1, B5 at 4, S8 at 11, BztA at 13; stapled PL3-B5 and B5-S8 by olefin metathesis
notes: Stapled peptide; same description as I-730, earlier eluting staple isomer composition; also called Ac-PL3-Asp-Leu-B5-Asp-Glu-Ala-Ala-Phe-Asn-S8-Phe-BztA-Gln-Ala-NH2
B15: I-738 (peptide)
peptide: XDLXDEAAFNXFXHA
modifications: not fully specified; N-terminal Ac; C-terminal NH2; PL3 at 1, B5 at 4, S8 at 11, BztA at 13; stapled PL3-B5 and B5-S8 by olefin metathesis
notes: also called Ac-PL3-Asp-Leu-B5-Asp-Glu-Ala-Ala-Phe-Asn-S8-Phe-BztA-His-Ala-NH2
B16: I-741 (peptide)
peptide: XDLXDEAAFNXFXHI
modifications: not fully specified; N-terminal Ac; C-terminal NH2; PL3 at 1, B5 at 4, S8 at 11, BztA at 13; stapled PL3-B5 and B5-S8 by olefin metathesis
notes: Stapled peptide; same description as I-740, later eluting staple isomer composition; also called Ac-PL3-Asp-Leu-B5-Asp-Glu-Ala-Ala-Phe-Asn-S8-Phe-BztA-His-Ile-NH2
B17: I-739 (peptide)
peptide: XDLXDEAAFNXFXHA
modifications: not fully specified; N-terminal Ac; C-terminal NH2; PL3 at 1, B5 at 4, S8 at 11, BztA at 13, dAla (D-Ala) at 15; stapled PL3-B5 and B5-S8 by olefin metathesis
notes: also called Ac-PL3-Asp-Leu-B5-Asp-Glu-Ala-Ala-Phe-Asn-S8-Phe-BztA-His-dAla-NH2
B18: I-745 (peptide)
peptide: XDLXDEAAFNXFXH
modifications: not fully specified; N-terminal Ac; C-terminal NH2; PL3 at 1, B5 at 4, S8 at 11, BztA at 13, dHis (D-His) at 14; stapled PL3-B5 and B5-S8 by olefin metathesis
notes: Stapled peptide; same description as I-744, later eluting staple isomer composition; also called Ac-PL3-Asp-Leu-B5-Asp-Glu-Ala-Ala-Phe-Asn-S8-Phe-BztA-dHis-NH2

molecular target: T1, full-length beta-Catenin (Uniprot ID …); experiment: fluorescence polarization competition: full-length beta-catenin + 5FAM-TCF4(10-53) probe, peptide titrated
Description: (§1) The plate was incubated protected from light for 60 minutes at 20° C. prior to read. Reads were performed on a CLARIOstar plate reader (BMG Labtech) in duplicate, and data were fitted to a 1:1 binding model with hill slope using an in-house script. All provided concentrations are final concentrations.

Question: How did the EC50 turn out when B1 was run?
Answer: The EC50 was 125 nM.

Question: Which EC50 does the source give for B2 here?
Answer: Its EC50 is 56 nM.

Question: Which EC50 does the source give for B3 here?
Answer: The EC50 was 28 nM.

molecular target: T2, full-length beta-Catenin (Uniprot ID …); experiment: fluorescence polarization competition; full-length beta-catenin, competitor 5FAM-TCF4(10-53) probe
Description: as §1

Question: How did the IC50 turn out when B4 was run?
Answer: The IC50 was 5000 nM.

Question: How did the IC50 turn out when B5 was run?
Answer: Its IC50 is 4260 nM.

Question: Which IC50 does the source give for B6 here?
Answer: Its IC50 is 246 nM.

Question: For B7, which IC50 is on record?
Answer: The IC50 was 370 nM.

Question: How did the IC50 turn out when B8 was run?
Answer: The IC50 was 2390 nM.

Question: Which IC50 does the source give for B9 here?
Answer: Its IC50 is 112 nM.

Question: How did the IC50 turn out when B10 was run?
Answer: Its IC50 is 54 nM.

Question: With B11 as the binder, how does the IC50 read?
Answer: The IC50 was 4220 nM.

Question: For B12, which IC50 is on record?
Answer: The IC50 was 376 nM.

Question: Which IC50 does the source give for B13 here?
Answer: The IC50 was 159 nM.

Question: B14 was tested. Which IC50 did it give?
Answer: Its IC50 is 56 nM.

Question: Which IC50 does the source give for B15 here?
Answer: The IC50 was 63 nM.

Question: With B16 as the binder, how does the IC50 read?
Answer: The IC50 was 226 nM.

Question: With B17 as the binder, how does the IC50 read?
Answer: Its IC50 is 53 nM.

Question: Which IC50 does the source give for B18 here?
Answer: Its IC50 is 80 nM.
